# B1: LOXL2 (parent)
# chain: HISSCKLGPQVSLDPMKNVTCENG
# Variants of: B1
# Assay: protein stability index of a GFP-peptide fusion (GPS, HEK-293T) (PSI 1-6); higher = more stable
# Conditions: c terminus: a fixed tail appended
# 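Further: lentivirally expressed fusions sorted by FACS into six bins by GFP to DsRed ratio, PSI derived from sequencing read proportions per bin multiplied by bin number.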
row,Variant,protein stability index
1,HISSCKLGPQVSLDPMKNVTCEFG,2.93
2,HISSCKLGPQVSLDPMKNVTCECG,4.01
3,HISSCKLGPQVSLDPMKNVTCEIG,2.9
4,HISSCKLGPQVSLDPMKNVTCERG,3.58
5,HISSCKLGPQVSQDPMKNVTCENG,4.28
6,HISSCKLGPQVSYDPMKNVTCENG,3.5
7,HISSCKLGPQVSPDPMKNVTCENG,4.22
8,HISSCKLGPQVSDDPMKNVTCENG,4.34
9,HISSCKLGPQVSKDPMKNVTCENG,4.15
10,HISSCVLGPQVSLDPMKNVTCENG,3.95
11,HISSCCLGPQVSLDPMKNVTCENG,3.73
12,HISSCHLGPQVSLDPMKNVTCENG,4
13,HISSCYLGPQVSLDPMKNVTCENG,3.44
14,HISSCALGPQVSLDPMKNVTCENG,3.96
15,HISSCRLGPQVSLDPMKNVTCENG,3.94
16,HISSCKSGPQVSLDPMKNVTCENG,3.96
17,HISSCKIGPQVSLDPMKNVTCENG,4.57
18,HISSCKKGPQVSLDPMKNVTCENG,4.33
19,HISSCKAGPQVSLDPMKNVTCENG,4.62
20,HISSCKWGPQVSLDPMKNVTCENG,2.28
21,HISSCKFGPQVSLDPMKNVTCENG,4.1
22,HISSCKNGPQVSLDPMKNVTCENG,4.37
23,HISSCKLKPQVSLDPMKNVTCENG,3.61
24,HISSCKLRPQVSLDPMKNVTCENG,3.29

row,Variant,protein stability index
1,HISSCKLGPQVSLDPMTNVTCENG,4.19
2,HISSCKLGPQVSLDPMDNVTCENG,4.66
3,HISSCKLGPMVSLDPMKNVTCENG,3.37
4,HISSCKLGPNVSLDPMKNVTCENG,3.92
5,HISSCKLGPRVSLDPMKNVTCENG,3.85
6,HISSCKLGPEVSLDPMKNVTCENG,4.42
7,HISSCKLGPWVSLDPMKNVTCENG,2.08
8,HISSCKLGPQVALDPMKNVTCENG,4.3
9,HISSCKLGPQVCLDPMKNVTCENG,3.43
10,HISSCKLGPQVDLDPMKNVTCENG,3.72
11,HISSCKLGPQVPLDPMKNVTCENG,4.18
12,HISSCKLGPQVSLDPMKWVTCENG,2.88
13,HISSCKLGPQVSLDPMKVVTCENG,3.78
14,HISSCKLGPQVSLDPMKHVTCENG,3.81
15,HISSCKLGPQVSLDPMKRVTCENG,3.44
16,HISSCKLGPQVSLDPMKLVTCENG,3.12
17,HISSFKLGPQVSLDPMKNVTCENG,3.83
18,HISSLKLGPQVSLDPMKNVTCENG,4.32
19,HISSCKLGPQVSLDPMKNVPCENG,4.26
20,HISSCKLGPQVSLDPMKNVACENG,3.99
21,HISSCKLGPQVSLDPMKNVNCENG,4.13
22,HISSCKLGPQVSLDPMKNVFCENG,2.48
23,HISSCKLGPQVSLDPMKNVICENG,3.84
24,HISSCKLGPQVSLDPMKNVTCENT,4.05

row,Variant,protein stability index
1,HISSCKLGPQVSLDPMKNVTCENP,3.79
2,HISSCKLGPQVSLDPMKNVTCENC,3.37
3,HISSCKLGPQVSLDPMKNVTCENF,3.34
4,HISSCKLGPQVSLDPMKNVTCENN,4.12
5,HISSCKLGPQVSLNPMKNVTCENG,3.33
6,HISSCKLGPQVSLCPMKNVTCENG,2.95
7,HISSCKLGPQVSLDRMKNVTCENG,3.82
8,HISSCKLGPQVSLDQMKNVTCENG,4.03
9,HISSCKLGPQVSLDEMKNVTCENG,4.64
10,HISSCKLGPQVSLDNMKNVTCENG,4.11
11,HISSCKLGPQVSLDVMKNVTCENG,3.88
12,HISSCKLGPQVSLDPMKNNTCENG,4.57
13,HISSCKLGPQVSLDPMKNATCENG,4.32
14,HISSCKLGPQVSLDPMKNTTCENG,3.71
15,HISSCKLGPQVSLDPMKNWTCENG,2.99
16,HISSCKLGPQVSLDPMKNPTCENG,4.2
17,CISSCKLGPQVSLDPMKNVTCENG,3.73
18,DISSCKLGPQVSLDPMKNVTCENG,4.33
19,GISSCKLGPQVSLDPMKNVTCENG,4.46
20,QISSCKLGPQVSLDPMKNVTCENG,3.95
21,NISSCKLGPQVSLDPMKNVTCENG,4.52
22,HKSSCKLGPQVSLDPMKNVTCENG,3.4
23,HHSSCKLGPQVSLDPMKNVTCENG,3.53
24,HVSSCKLGPQVSLDPMKNVTCENG,4.21

row,Variant,protein stability index
1,HIRSCKLGPQVSLDPMKNVTCENG,3.48
2,HIPSCKLGPQVSLDPMKNVTCENG,3.99
3,HIDSCKLGPQVSLDPMKNVTCENG,4.39
4,HILSCKLGPQVSLDPMKNVTCENG,3.19
5,HISSCKLGHQVSLDPMKNVTCENG,3.73
6,HISSCKLGNQVSLDPMKNVTCENG,3.71
7,HISSCKLGMQVSLDPMKNVTCENG,2.69
8,HISSCKLGPQISLDPMKNVTCENG,3.72
9,HISSCKLGPQASLDPMKNVTCENG,4.03
10,HISMCKLGPQVSLDPMKNVTCENG,3.94
11,HISYCKLGPQVSLDPMKNVTCENG,3.44
12,HISNCKLGPQVSLDPMKNVTCENG,3.47
13,HISSCKLGPQVSLDPIKNVTCENG,3.68
14,HISSCKLGPQVSLDPGKNVTCENG,4.22
15,HISSCKLGPQVSLDPFKNVTCENG,3.74
16,HISSCKLGPQVSLDPMKNVTDENG,4.79
17,HISSCKLGPQVSLDPMKNVTSENG,4.63
18,HISSCKLGPQVSLDPMKNVTQENG,3.86
19,HISSCKLGPQVSLDPMKNVTCANG,3.51
20,HISSCKLGPQVSLDPMKNVTCCNG,3.22
21,HISSCKLGPQVSLDPMKNVTCHNG,3.18
22,HISSCKLGPQVSLDPMKNVTCVNG,3
